Changes are numbered by the printed parent chain.
B1: antibody A9 (L9H9) (antibody, V domains shown)
VH: QVQLVESGGGVVQPGRSLRLSCAASGFTFSSHGMHWVRQAPGKGLEWVAVIWYDGSNKHYADSVKGRFTISRDNSKNTLYLQMNSLRAEDTAVYYCARGDILTGYYGYWGQGTLVTVSS
VL: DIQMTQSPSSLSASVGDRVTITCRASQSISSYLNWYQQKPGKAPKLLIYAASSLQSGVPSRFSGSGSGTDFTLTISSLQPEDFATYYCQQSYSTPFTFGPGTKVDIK
notes: also called aCTLA-4.24
B2: antibody A3 (L3H3) (antibody, V domains shown)
VH: B1 VH with A23I, H32Y, I51N, D100G, I101V, L102W, T103G, G104P, Y106F, G107D
VL: not shown
notes: also called aCTLA-4.2
B3: antibody A8 (L8H8) (antibody, V domains shown)
VH: QVQLVESGGGVVQPGRSLRLSCAASGFTFSRYGMHWVRQAPGKGLEWVAVIWYDGRNKYYADSVKGRFTISRDNSKNTLYLQMNSLRAEDTALYSCARAGELGPFDYWGQGTLVTVSS
VL: EIVLTQSPGTLSLSPGERATLSCRASQSVSYLAWYQQKPGQAPRLLIYGASSRATGIPDRFSGSGSGTDFTLTISRLEPEDFAVYYCQQYGSSPWTFGQGTKVEIK
notes: also called aCTLA-4.1
B4: antibody A1 (L1H1) (antibody, V domains shown)
VH: QVQLVESGGGVVQPGRSLRLSCAASGFTFSSFGMHWVRQAPGKGLEWVAVIWYDGRNKYYVDSVKGRFTISRDNSNNTLYLQMNSLRAEDTAVYYCARGEFFGEFFDYWGQGTLVTVSS
VL: EIVLTQSPGTLSLSPGEGATLSCRASQSFSSNYLAWYQQKPGQAPRLLIYGASSRATGIPDRFSGSGSGTDFTLTISRLEPEDFAVYYCQQYGTSPFTFGPGTKVDIK
notes: also called aCTLA-4.9; CTLA4.A1
B5: Ipilimumab (antibody, V domains shown)
VH: QVQLVESGGGVVQPGRSLRLSCAASGFTFSSYTMHWVRQAPGKGLEWVTFISYDGNNKYYADSVKGRFTISRDNSKNTLYLQMNSLRAEDTAIYYCARTGWLGPFDYWGQGTLVTVSSA
VL: not shown
notes: also called commercial ipilimumab; Yervoy

What follows are binders tested against T1, His-tagged human CTLA-4 (CT4-H5229; Acro Biosystems) (human, UniProt P16410 36-161) (assay: SPR (Carterra)).
T1 construct: bought soluble protein; also called soluble human CTLA-4; recombinant human CTLA-4; not shown: His tag
Procedure: (§1) Then, goat anti-Human IgG Fc (Southern Biotech 2047-01) was coupled for 10 minutes at […] in 10 mM Sodim Acetate pH 4.5 (Carterra Inc.). The surface was then deactivated with 1 M ethanolamine pH 8.5 (Carterra Inc.). Running buffer used for the lawn immobilization was HBS-EPC (10 mM HEPES, 150 mM NaCl, 3 mM EDTA, 0.05% Tween 20, pH 7.4; Teknova).
(§2) The sensor chip was then transferred to a continuous flow microspotter (CFM; Carterra Inc.) for array capturing. The mAb supernatants were diluted 50-fold ([…] final concentration) into HBS-EPC with 1 mg/mL BSA. The samples were each captured twice with 15-minute and 4-minute capture steps on the first and second prints, respectively, to create multiple densities, using a […] flow rate. The running buffer in the CFM was also HBS-EPC.
(§3) Next, the sensor chip was loaded onto an SPR reader (MX-96 system; Ibis Technologies) for the kinetic analysis. CTLA-4 was injected at five increasing concentrations in a four-fold dilution series with concentrations of 1.95, 7.8, 31.25, 125, and 500 nM in running buffer (HBS-EPC with 1.0 mg/mL BSA). CTLA-4 injections were 5 minutes with a 15-minute dissociation at […] in a non-regenerative kinetic series. An injection of the goat anti-Human IgG Fc capture antibody at […] was injected at the end of the series to verify the capture level of each mAb. Binding data was double referenced by subtracting an interspot surface and a blank injection and analyzed for ka (on-rate), kd (off-rate), and KD (affinity) using the Kinetic Interaction Tool software (Carterra Inc.).

T1 sequence (P16410 36-161 limits assumed): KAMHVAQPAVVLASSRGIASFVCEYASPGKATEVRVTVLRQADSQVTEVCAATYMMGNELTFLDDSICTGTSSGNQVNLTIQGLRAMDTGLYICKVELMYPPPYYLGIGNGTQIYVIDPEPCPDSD

Row | Kd | koff | kon | Binder
1 | 6.8 nM | 0.00043 s⁻¹ | 63000 M⁻¹ s⁻¹ | B1
2 | 1.5 nM | 0.00028 s⁻¹ | 190000 M⁻¹ s⁻¹ | B2
3 | 4.6 nM | 0.00039 s⁻¹ | 85000 M⁻¹ s⁻¹ | B3
4 | 0.77 nM | 0.00016 s⁻¹ | 210000 M⁻¹ s⁻¹ | B4

The binders below were run against T2, human CTLA-4 expressed on the cell surface (human, UniProt P16410 36-223) (assay: cell-based or functional assay).
T2 sequence (P16410 36-223 limits assumed): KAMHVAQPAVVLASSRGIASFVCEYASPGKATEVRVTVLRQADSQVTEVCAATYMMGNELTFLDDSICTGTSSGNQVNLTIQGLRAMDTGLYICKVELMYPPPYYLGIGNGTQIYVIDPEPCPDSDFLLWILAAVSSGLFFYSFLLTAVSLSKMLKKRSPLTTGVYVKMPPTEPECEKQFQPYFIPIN

Row | Promega assay % inhibition | Promega assay antagonist (EC50, ug/mL) | Binder
5 | 60.8% | 0.19 µg/mL | B1
6 | 49.8% | 0.18 µg/mL | B2
7 | 54.7% | 0.15 µg/mL | B3
8 | 43.2% | 0.13 µg/mL | B4

These binders were tested against T3, His-tagged cynomolgus CTLA-4 (CT4-C5227; Acro Biosystems) (cynomolgus, UniProt G7PL88 36-161) (assay: BLI (Octet), single antigen concentration).
T3 construct: also called soluble cynomolgus CTLA-4; cyno CTLA-4
Procedure: (§4) Table 23. In vitro characterization of scFvs reformatted as full-length antibodies. kon, koff, and KD of the indicated CTLA-4 mAbs for soluble human CTLA-4 was determined by SPR (Carterra). Geometric MFI of the indicated CTLA-4 mAbs bound to CTLA-4⁺ or CD27⁺ CHO cells as detected by a secondary human IgG antibody and flow cytometry. Affinity (KD) of the indicated CTLA-4 mAbs for soluble cynomolgus CTLA-4 was determined by a single antigen concentration BLI measurement (Octet). […] Due to constraints on sample size in each Promega bioassay kit, this set of aCTLA-4 mAbs was analyzed using multiple plates (plate letters correspond to Plate A-D in FIG. 20D).
Antibodies were loaded at 5 μg/mL onto Protein A biosensors that were dipped into 80 nM antigen, and kinetic constants were calculated using a monovalent model.

T3 sequence (G7PL88 entry or part of it limits assumed, form in doubt): as the sequence (P16410 36-161 limits assumed) above, with S14N, I18T, L106M counted along it

Row | Kd | Binder
9 | 0.9 nM | B1
10 | 1.2 nM | B2
11 | 1 nM | B3
12 | 1 nM | B4

Biological target: T1, His-tagged human CTLA-4 (CT4-H5229; …)
Assay: SPR (Carterra)
Remark: another data set of the same source
Procedure: as §1, §2, §3

Row | Kd | Binder
13 | 6.8 nM | B1
14 | 1.5 nM | B2
15 | 4.6 nM | B3
16 | 0.77 nM | B4

What follows are binders tested against T1, His-tagged human CTLA-4 (CT4-H5229; …) (assay: SPR (Carterra), soluble human CTLA-4).

Row | Kd | koff | kon | Binder
17 | 6.8 nM | 0.00043 s⁻¹ | 63000 M⁻¹ s⁻¹ | B1
18 | 1.5 nM | 0.00028 s⁻¹ | 190000 M⁻¹ s⁻¹ | B2
19 | 4.6 nM | 0.00039 s⁻¹ | 85000 M⁻¹ s⁻¹ | B3
20 | 0.77 nM | 0.00016 s⁻¹ | 210000 M⁻¹ s⁻¹ | B4

Biological target: T2, human CTLA-4 expressed on the cell …
Assay: cell-based or functional assay
Remark: another data set of the same source

Row | Cell-based blocking activity EC50 | Cell-based blocking activity max signal (RLU) | Binder
21 | 0.19 µg/mL | 333 RLU | B1
22 | 0.18 µg/mL | 273 RLU | B2
23 | 0.1 µg/mL | 349 RLU | B3
24 | 0.13 µg/mL | 237 RLU | B4

These binders were tested against T4, CD27 on CHO cells (UniProt P26842 20-260, limits assumed) (assay: flow cytometry, mixed CTLA-4+ and CD27+ CHO cells).
T4 construct: whole, on cells; also called CD27+ CHO cells; irrelevant antigen (CD27)
Procedure: To determine if the CTLA-4 mAbs bound the appropriate antigen expressed on the surface of mammalian cells, CHO cell lines stably expressing human CTLA-4 or an irrelevant antigen (CD27) were generated. Cells (0.5×10⁶ each cell line) were combined and washed with MACS buffer (Dulbecco's Phosphate Buffered Saline [DPBS], with 0.5% bovine serum albumin [BSA], and 2 mM ethylenediaminetetraacetic acid [EDTA]). The cells were incubated with 10 μg/mL anti-CTLA-4 for 30 min at 4° C., then excess, unbound mAbs were removed by washing twice with MACS buffer. The cells were then stained with PE-conjugated anti-Human IgG Fc antibody (clone M1310G05, BioLegend 410720, San Diego, Calif., USA) to detect bound anti-CTLA-4 and with fluorescein isothiocyanate (FITC)-conjugated anti-CD27 (clone 0323, BioLegend 302806, San Diego, Calif., USA) to distinguish the cells expressing the irrelevant antigen. Cells were washed twice with MACS buffer, fixed with 4% paraformaldehyde fixation buffer (BioLegend 420801, San Diego, Calif., USA) for 20 minutes at room temperature and washed twice more with MACS buffer. […] Binding of mAbs to CTLA-4 on the cell surface was determined using LSR II (BD Biosciences, San Jose, Calif., USA) or CytoFLEX LX (Beckman Coulter, Brea. Calif., USA) flow cytometers and analyzed using FlowJo (v10.6.1, BD Biosciences, San Jose, Calif., USA).

T4 sequence (P26842 20-260 limits assumed): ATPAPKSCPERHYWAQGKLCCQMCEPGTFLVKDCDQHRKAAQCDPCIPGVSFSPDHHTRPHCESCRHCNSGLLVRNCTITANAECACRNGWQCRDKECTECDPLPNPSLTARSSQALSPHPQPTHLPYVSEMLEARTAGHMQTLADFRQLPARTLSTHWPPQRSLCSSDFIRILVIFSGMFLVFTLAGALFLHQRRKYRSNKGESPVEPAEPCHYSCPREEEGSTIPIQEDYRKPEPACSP

Row | binding result | Binder
25 | no binding (tested: 10 µg/mL) | B1
26 | no binding (tested: 10 µg/mL) | B2
27 | no binding (tested: 10 µg/mL) | B3
28 | no binding (tested: 10 µg/mL) | B4

These binders were tested against T5, rcmCTLA-4-Fc from Sino Biological (90213-C02H) (cynomolgus monkey) (assay: ELISA, against R&D rhCTLA-4 Fc on the same plate).
T5 construct: also called Sino Biological rcmCTLA-4 Fc
Procedure: (§5) Recombinant human CTLA-4-Fc (rhCTLA-4) from R&D Systems (7268-CT-100, FIGS. 36A-36C) was coated at 1 ug/mL, on the other half of each of the plates. […] RhCTLA-4-Fc (ACROBiosystems, CT4-H5229, FIGS. 36D-E) was coated at 1 ug/mL, on the other half of each of these plates. After coating, the plates were incubated overnight at 4° C.
(§6) The following day, the plates were blocked with 5% milk in PBST for 1 hour on a plate shaker at room temperature. […] Excess, unbound mAbs were removed by washing with PBST. Bound mAbs were then detected with an HRP-conjugated anti-kappa light chain antibody (0.5 ug/ml, Southern Biotech 2060-50). After incubation on a plate shaker for 1 hour at room temperature and washing, the plates were developed with TMB substrate. After sufficient signal was achieved, 1 N hydrochloric acid was added to stop development. Absorbance at 450 nm was read using a Spectramax i3x plate reader (Molecular Devices). EC50 values were calculated by plotting absorbance vs. the log of concentration using Prism (GraphPad).

Row | Fold Change (EC50 of cyno divided by EC50 of human) | Binder
29 | 1.6 | B5

These binders were tested against T6, rcmCTLA-4-Fc from ACROBiosystems (CT4-C5256) (cynomolgus monkey) (assay: ELISA, against R&D rhCTLA-4 Fc on the same plate).
T6 construct: also called ACROBiosystems rcmCTLA-4 Fc; ACROBiosystems cCTLA-4 Fc
Procedure: as §5, §6

Row | Fold Change (EC50 of cyno divided by EC50 of human) | Binder
30 | 1.3 | B5

These binders were tested against T4, CD27 on CHO cells (assay: flow cytometry, 10 µg/mL mAb, geometric MFI).
Procedure: as §4
(§7) To determine if the CTLA-4 mAbs bound the appropriate antigen expressed on the surface of mammalian cells, CHO cell lines stably expressing human CTLA-4 or an irrelevant antigen (CD27) were generated. Cells (0.5×10⁶ each cell line) were combined and washed with MACS buffer (Dulbecco's Phosphate Buffered Saline [DPBS], with 0.5% bovine serum albumin [BSA], and 2 mM ethylenediaminetetraacetic acid [EDTA]). The cells were incubated with 10 μg/mL anti-CTLA-4 for 30 min at 4° C., then excess, unbound mAbs were removed by washing twice with MACS buffer. The cells were then stained with PE-conjugated anti-Human IgG Fc antibody (clone M1310G05, BioLegend 410720, San Diego, Calif., USA) to detect bound anti-CTLA-4 and with fluorescein isothiocyanate (FITC)-conjugated anti-CD27 (clone 0323, BioLegend 302806, San Diego, Calif., USA) to distinguish the cells expressing the irrelevant antigen. Cells were washed twice with MACS buffer, fixed with 4% paraformaldehyde fixation buffer (BioLegend 420801, San Diego, Calif., USA) for 20 minutes at room temperature and washed twice more with MACS buffer.

Row | MFI of CD27+ CHO cells | Binder
31 | 26 | B1
32 | 18.2 | B2
33 | 18.6 | B3
34 | 18.5 | B4

The binders below were run against T2, human CTLA-4 expressed on the cell … (assay: flow cytometry, 10 µg/mL mAb, geometric MFI).
Procedure: as §4, §7

Row | MFI of CTLA-4+ CHO cells | Binder
35 | 934 | B1
36 | 1050 | B2
37 | 1010 | B3
38 | 1330 | B4

These binders were tested against T3, His-tagged cynomolgus CTLA-4 … (assay: BLI (Octet)).
Procedure: (§8) The binding specificity and affinity of each full-length antibody towards CTLA-4 were determined using biolayer interferometry (BLI) and/or surface plasmon resonance (SPR). Anti-cyno CTLA-4 and anti-mouse CTLA-4 affinities were tested using ForteBio (BLI). Anti-human CTLA-4 affinities were measured using Carterra (SPR).
(§9) For BLI, antibodies were loaded onto an Anti-Human IgG Fc (AHC) biosensor using the Octet Red96 system (ForteBio). Loaded biosensors were dipped into antigen dilutions beginning at 300 nM, with 6 serial dilutions at 1:3. Kinetic analysis was performed using a 1:1 binding model and global fitting.

Row | Kd | Binder
39 | 0.92 nM | B1
40 | 1.2 nM | B2
41 | 1 nM | B3
42 | 0.96 nM | B4

These binders were tested against mouse CTLA-4 (mouse, UniProt P09793 36-161, limits assumed) (assay: BLI (Octet)).
Procedure: as §8, §9

mouse CTLA-4, sequence (P09793 36-161 limits assumed): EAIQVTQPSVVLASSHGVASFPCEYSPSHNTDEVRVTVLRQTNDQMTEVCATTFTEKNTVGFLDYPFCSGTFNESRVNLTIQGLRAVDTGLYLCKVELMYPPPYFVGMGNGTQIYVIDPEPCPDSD

Row | binding result | Kd | Binder
43 | no binding (tested: 300 nM) | – | B1
44 | no binding (tested: 300 nM) | – | B2
45 | no binding (tested: 300 nM) | – | B3
46 | – | 51 nM | B4

From patent US20230265192A1 (GIGAGEN, published 2023)
